T1: murine IL27 receptor (IL27Ra and gp130) on mouse cells (MC9/STAT3-Luc reporter cells; splenic CD4+ T cells) (mouse) (UniProt O70394)
T1 sequence (looked up) 1: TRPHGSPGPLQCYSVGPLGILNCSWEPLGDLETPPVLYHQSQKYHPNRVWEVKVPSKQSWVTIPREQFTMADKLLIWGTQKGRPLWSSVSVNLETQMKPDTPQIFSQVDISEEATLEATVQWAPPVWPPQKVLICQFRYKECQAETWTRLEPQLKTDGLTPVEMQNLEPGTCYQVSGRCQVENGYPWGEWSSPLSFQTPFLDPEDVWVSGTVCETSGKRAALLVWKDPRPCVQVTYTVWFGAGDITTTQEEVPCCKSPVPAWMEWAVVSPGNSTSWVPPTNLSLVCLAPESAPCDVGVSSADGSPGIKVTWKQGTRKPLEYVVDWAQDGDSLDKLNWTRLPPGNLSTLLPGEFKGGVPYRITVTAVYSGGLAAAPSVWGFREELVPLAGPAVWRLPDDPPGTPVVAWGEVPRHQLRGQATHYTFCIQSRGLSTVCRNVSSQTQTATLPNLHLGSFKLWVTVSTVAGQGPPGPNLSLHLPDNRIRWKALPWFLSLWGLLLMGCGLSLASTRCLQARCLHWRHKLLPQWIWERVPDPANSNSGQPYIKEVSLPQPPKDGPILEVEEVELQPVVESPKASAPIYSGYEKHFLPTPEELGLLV
T1 sequence (looked up) 2: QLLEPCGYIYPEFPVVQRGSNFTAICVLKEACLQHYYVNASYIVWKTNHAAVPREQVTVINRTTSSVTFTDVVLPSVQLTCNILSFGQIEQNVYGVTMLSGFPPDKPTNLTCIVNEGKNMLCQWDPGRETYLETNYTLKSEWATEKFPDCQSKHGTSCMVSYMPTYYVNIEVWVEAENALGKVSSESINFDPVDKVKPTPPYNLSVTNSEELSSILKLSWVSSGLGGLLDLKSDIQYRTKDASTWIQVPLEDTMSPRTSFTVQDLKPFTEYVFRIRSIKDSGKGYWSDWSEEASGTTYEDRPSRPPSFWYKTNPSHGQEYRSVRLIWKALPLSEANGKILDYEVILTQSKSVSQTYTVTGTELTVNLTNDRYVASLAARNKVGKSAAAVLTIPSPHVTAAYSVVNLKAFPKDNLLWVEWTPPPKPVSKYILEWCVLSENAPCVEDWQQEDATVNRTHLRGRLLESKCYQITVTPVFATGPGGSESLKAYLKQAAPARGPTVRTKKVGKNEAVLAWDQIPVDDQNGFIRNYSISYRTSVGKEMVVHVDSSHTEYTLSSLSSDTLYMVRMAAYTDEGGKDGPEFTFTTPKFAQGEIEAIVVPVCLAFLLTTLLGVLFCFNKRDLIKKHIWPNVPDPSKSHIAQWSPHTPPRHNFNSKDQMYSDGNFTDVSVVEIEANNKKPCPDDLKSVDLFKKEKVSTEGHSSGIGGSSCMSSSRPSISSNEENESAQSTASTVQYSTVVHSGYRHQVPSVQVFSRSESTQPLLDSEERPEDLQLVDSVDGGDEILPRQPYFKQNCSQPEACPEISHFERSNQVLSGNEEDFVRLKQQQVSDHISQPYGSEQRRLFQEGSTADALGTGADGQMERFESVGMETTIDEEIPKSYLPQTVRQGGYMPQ


Columns and labels:
[1] = molecular target: human IL27 receptor (IL27Ra and gp130) on NCI-H929/GAS-Luc cells (human) (UniProt Q6UWB1); test: cell-based or functional assay
Chain of human IL27 receptor (IL27Ra and gp130) on NCI-H929/GAS-Luc cells (human) (Q6UWB1 33-636, chain 1 of 2): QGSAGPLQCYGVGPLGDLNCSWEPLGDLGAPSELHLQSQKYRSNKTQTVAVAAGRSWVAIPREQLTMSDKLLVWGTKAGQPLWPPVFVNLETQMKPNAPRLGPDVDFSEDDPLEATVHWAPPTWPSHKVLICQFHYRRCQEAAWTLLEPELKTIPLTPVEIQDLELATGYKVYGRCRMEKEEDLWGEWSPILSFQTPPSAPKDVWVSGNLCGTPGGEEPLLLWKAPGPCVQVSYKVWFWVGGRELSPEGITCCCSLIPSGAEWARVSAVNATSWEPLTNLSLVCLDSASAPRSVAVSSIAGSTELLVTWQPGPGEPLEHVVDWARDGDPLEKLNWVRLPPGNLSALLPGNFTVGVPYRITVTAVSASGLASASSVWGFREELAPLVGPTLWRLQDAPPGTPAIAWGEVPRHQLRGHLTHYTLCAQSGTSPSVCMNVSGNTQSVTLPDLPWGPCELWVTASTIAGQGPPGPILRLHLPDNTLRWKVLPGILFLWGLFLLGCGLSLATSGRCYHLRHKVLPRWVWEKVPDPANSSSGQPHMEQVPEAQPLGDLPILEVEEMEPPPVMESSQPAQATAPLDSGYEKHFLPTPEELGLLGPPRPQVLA
Chain of human IL27 receptor (IL27Ra and gp130) on NCI-H929/GAS-Luc cells (human) (chain, as listed by the source, chain 2 of 2): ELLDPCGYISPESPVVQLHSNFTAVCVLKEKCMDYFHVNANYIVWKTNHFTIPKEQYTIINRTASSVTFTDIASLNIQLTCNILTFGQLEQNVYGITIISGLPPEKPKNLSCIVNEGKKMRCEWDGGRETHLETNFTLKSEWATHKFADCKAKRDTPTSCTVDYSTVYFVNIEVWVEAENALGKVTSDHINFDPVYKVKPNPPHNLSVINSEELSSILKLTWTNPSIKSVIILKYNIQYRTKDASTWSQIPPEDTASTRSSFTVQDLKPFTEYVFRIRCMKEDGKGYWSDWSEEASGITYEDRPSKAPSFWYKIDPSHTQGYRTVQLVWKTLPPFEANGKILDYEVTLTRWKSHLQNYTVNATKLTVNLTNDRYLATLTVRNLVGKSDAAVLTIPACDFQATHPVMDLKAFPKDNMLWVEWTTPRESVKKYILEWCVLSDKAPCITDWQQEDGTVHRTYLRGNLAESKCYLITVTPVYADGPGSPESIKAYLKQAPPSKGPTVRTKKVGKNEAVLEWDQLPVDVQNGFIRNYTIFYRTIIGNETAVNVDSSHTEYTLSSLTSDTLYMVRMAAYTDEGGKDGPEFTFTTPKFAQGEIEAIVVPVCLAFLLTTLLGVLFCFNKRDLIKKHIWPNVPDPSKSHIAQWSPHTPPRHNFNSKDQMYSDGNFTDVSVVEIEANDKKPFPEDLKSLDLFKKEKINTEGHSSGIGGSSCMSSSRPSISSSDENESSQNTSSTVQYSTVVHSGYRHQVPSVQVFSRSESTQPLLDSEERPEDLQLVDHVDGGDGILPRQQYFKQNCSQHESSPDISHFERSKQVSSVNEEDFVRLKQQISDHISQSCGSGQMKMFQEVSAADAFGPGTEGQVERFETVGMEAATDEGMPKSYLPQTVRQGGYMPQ

[2] = molecular target: T1, murine IL27 receptor (IL27Ra and gp130) on mouse cells (MC9/STAT3-Luc reporter cells; splenic CD4+ T cells) (mouse); test: cell-based or functional assay

Molecule	EC50 (M), GAS luciferase, NCI-H929/GAS-Luc cells [1] [M]	FOLD INDUCTION, GAS luciferase, NCI-H929/GAS-Luc cells [1] [fold]	EC50 (M), STAT3 luciferase, MC9/STAT3-Luc cells [2] [M]	EC50 (M), STAT3 luciferase, MC9 cells [2] [M]	EC50, luciferase activity, MC9/STAT3-Luc reporter cells [2] [pM]	EC50, phosphorylation of STAT1 in CD4+ T-cells [2] [µg/mL]	FOLD INDUCTION, STAT3 luciferase, MC9/STAT3-Luc cells [2] [fold]	FOLD INDUCTION, STAT3 luciferase, MC9 cells [2] [fold]
human EBI3-p28-Fc (bivalent), configuration IL27M1 (Fc fusion)	5.35e-09	15.2	–	–	–	–	–	–
human hEBI3×hp28-Fc (monovalent) (Fc fusion)	1.27e-10	14.3	–	–	–	–	–	–
Recombinant murine IL27 (R&D Systems cat# 2700-ML-010/CF), Mouse EBI3-(GGGS)4-Mouse p28-6-His tag (ligand) YTETALVALSQPRVQCHASRYPVAVDCSWTPLQAPNSTRSTSFIATYRLGVATQQQSQPCLQRSPQASRCTIPDVHLFSTVPYMLNVTAVHPGGASSSLLAFVAERIIKPDPPEGVRLRTAGQRLQVLWHPPASWPFPDIFSLKYRLRYRRRGASHFRQVGPIEATTFTLRNSKPHAKYCIQVSAQDLTDYGKPSDWSLPGQVESAPHKPGGGSGGGSGGGSGGGSFPTDPLSLQELRREFTVSLYLARKLLSEVQGYVHSFAESRLPGVNLDLLPLGYHLPNVSLTFQAWHHLSDSERLCFLATTLRPFPAMLGGLGTQGTWTSSEREQLWAMRLDLRDLHRHLRFQVLAAGFKCSKEEEDKEEEEEEEEEEKKLPLGALGGPNQVSSQVSWPQLLYTYQLLHSLELVLSRAVRDLLLLSLPRRPGSAWDSHHHHHH	–	–	3.22e-12	4.62e-12	6.3	0.0244	5.25	2.86
